The target in assay [1] is hIL-10R1-Fc chimeric protein (extracellular domain of human IL-10 receptor 1 fused to Fc) (human) (UniProt Q13651). Kind of assay: ELISA; competitive displacement ELISA: hIL-10 (400 ng/mL) coated on Maxisorp wells; serially diluted IL-10 preincubated with 300 ng/mL hIL-10R1-Fc in PBS, 0.4% BSA, 0.02% Tween20 at 25 °C for 1 h, then transferred to the coated wells for 1 h at 25 °C; free hIL-10R1-Fc detected with anti-human IgG.

Assay [2] shares this target.
The target is the same in assay [3]. This is another data set of the same source.
Assay [4] has the same target. The experiment in a line: ELISA; […] (400 ng/mL) […]. For orientation: In an ELISA, binding on a coated surface is turned into a signal by an enzyme label.
For assay [5], the target named is Orf virus interleukin-10, FLAG-tagged (Orf virus). The experiment in a line: non-reducing SDS-PAGE with anti-FLAG Western blot.
Assay [6] deals with Pseudocowpox virus interleukin-10, FLAG-tagged (Pseudocowpox virus). Kind of assay: non-reducing SDS-PAGE with anti-FLAG Western blot; purified FLAG-tagged IL-10 mixed with SDS-PAGE sample buffer without DTT, without boiling; bands detected with HRP-conjugated anti-FLAG M2. (In general: In western blotting, separated proteins are transferred to a membrane and probed.)
Assay [7] addresses T1, hIL-10R1-Fc chimeric protein (extracellular domain of human IL-10 receptor 1 fused to Fc) (human, UniProt Q13651 22-235).
T1 construct: human interleukin-10 receptor subunit 1 (IL-10R1), extracellular domain; No catalogue number printed; also called soluble hIL-10R1-Fc fusion protein; source: bought: R&D Systems
T1 sequence: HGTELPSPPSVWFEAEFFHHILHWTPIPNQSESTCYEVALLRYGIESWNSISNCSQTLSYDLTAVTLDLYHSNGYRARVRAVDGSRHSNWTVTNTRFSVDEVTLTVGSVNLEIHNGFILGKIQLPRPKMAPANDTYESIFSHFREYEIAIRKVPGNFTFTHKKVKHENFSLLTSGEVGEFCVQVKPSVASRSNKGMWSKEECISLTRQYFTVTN
The experiment in a line: ELISA; competitive displacement ELISA: hIL-10 (400 ng/mL) coated on Maxisorp wells; serially diluted IL-10 preincubated with 300 ng/mL hIL-10R1-Fc in PBS, 0.4% BSA, 0.02% Tween20 at 25 °C for 1 h, then transferred to the coated wells for 1 h at 25 °C; free hIL-10R1-Fc detected with anti-human IgG. Particulars: both partners purified.

The values below come from publication PMC9143231, “Parapoxvirus Interleukin-10 Homologues Vary in Their Receptor Binding, Anti-Inflammatory, and Stimulatory Activities” (Pathogens, 2022).

In the case of “Bovine papular stomatitis virus interleukin-10, FLAG-tagged (ligand)”, in assay [1], the Emax (Δ%) of hIL-10R1-Fc displacement, relative to hIL-10 is 98.7 Δ% and the pIC50 (negative log10 of the IC50) was 8.72 M.
As for “Grey sealpox virus interleukin-10, FLAG-tagged (ligand)”, in assay [2], the Emax (Δ%, relative to hIL-10) of inhibition of IL-1β production by LTA-stimulated human THP-1 monocytes, 48 h is 25.8 Δ%; the Emax (Δ%, relative to hIL-10) of inhibition of IL-8 production by LTA-stimulated human THP-1 monocytes, 24 h (pIC50 ND) is 50.1 Δ%; the Emax (Δ%, relative to hIL-10) of inhibition of MCP-1 production by LTA-stimulated human THP-1 monocytes, 24 h (pIC50 ND) was 31 Δ%; the pIC50 (M) of inhibition of IL-1β production by LTA-stimulated human THP-1 monocytes, 48 h is 11 M (pIC50). In assay [3], the Emax (Δ%, relative to hIL-10) of stimulation of murine MC/9 mast cell proliferation (with IL-3 and IL-4), 48 h is 25.8 Δ%; the pEC50 (M) of stimulation of murine MC/9 mast cell proliferation (with IL-3 and IL-4), 48 h is 9.3 M (pEC50).
Take “Orf virus interleukin-10, FLAG-tagged (ligand)”: in assay [4], the Emax (Δ%) of hIL-10R1-Fc displacement, relative to hIL-10 was 105 Δ% and the pIC50 (negative log10 of the IC50) worked out at 9.24 M. For the same molecule, the stoichiometry N (as a rule, a count of units in the complex or per binding partner) in assay [5] turned out to be 2.
“Pseudocowpox virus interleukin-10, FLAG-tagged (ligand)” gave a stoichiometry N in assay [6] of 2. In addition, in assay [1], the Emax (Δ%) of hIL-10R1-Fc displacement, relative to hIL-10 is 94.6 Δ% and the pIC50 (negative log10 of the IC50) was 7.66 M.
Turning to “Red deerpox virus interleukin-10, FLAG-tagged (ligand)”, in assay [1], the Emax (Δ%) of hIL-10R1-Fc displacement, relative to hIL-10 was 108 Δ% and the pIC50 (negative log10 of the IC50) is 9.51 M.

B1: human interleukin-10, FLAG-tagged (ligand, UniProt P22301 19-178, looked up)
chain: SPGQGTQSENSCTHFPGNLPNMLRDLRDAFSRVKTFFQMKDQLDNLLLKESLLEDFKGYLGCQALSEMIQFYLEEVMPQAENQDPDIKAHVNSLGENLKTLRLRLRRCHRFLPCENKSKAVEQVKNAFNKLQEKGIYKAMSEFDIFINYIEAYMTMKIRN
notes: also called hIL-10; human IL-10; not shown: FLAG, C-terminal, kept
For the molecule B1, in assay [7], the “Emax (Δ%) of hIL-10R1-Fc displacement, relative to hIL-10” value was 100 Δ% and the “pIC50 (negative log10 of the IC50)” value was 8.79.
